Experimental data taken from patent publication US7422862B2, “Methods for identifying modulators of apoptosis” (The Burnham Institute, priority 2001, dated 2008).

Columns and labels:
[1] = biological target: T1, Bax (Homo sapiens, UniProt Q07812); test: Bax-induced apoptosis in transfected neuronal cells (DAPI staining); assay type: cell-based; set-up: expressed in transfected cells
Procedure: (A) HEK293T cells were transfected with pcDNA3-HA-Bax together with plasmids encoding GFP, GFP-HN(N), or GFP-HN(M). Cell lysates were immunoprecipitated with polyclonal anti-GFP antibody. Immunoprecipitates (IP) or cell lysates were analyzed by immunoblotting using anti-HA or anti-GFP antibodies, respectively. (B) CSM14.1 neuronal cells were co-transfected with pcDNA3-HA-Bax together with plasmids encoding GFP, GFP-HN(N), or GFP-HN(M). Percent apoptosis was determined 48 h later by DAPI staining (mean±SD; n=3).
Rat neuronal cell line CSM14.1 cells were transfected with various plasmids using the Lipofectamine reagent (Invitrogen). For transfection, 10×10^5 cells were plated per well using 6 well plates. Each well received 1 μg DNA plus […] of Lipofectamine. After 24 hours of transfection, the percentage of cell death was determined using 4′-6-diamidino-2-phenylindole (DAPI) staining. […] The data shown were obtained using the cytosolic form of Humanin; however, both cytosolic and mitochondrial forms of Humanin were tested and the results were the same.
Apoptosis assays were performed as follows. Both floating and adherent cells (after trypsinization) were collected 48 hr after transfection, fixed, and stained using 4′,6-diamidine-2′-phenylindole dihydrochloride (DAPI) for assessing apoptosis based on nuclear fragmentation and chromatin condensation (Fields and Song, supra (1989)).
Since Humanin co-immunoprecipitates with Bax but not Bak, the effects of Humanin over-expression on apoptosis induced by these members of the Bcl-2 family was compared. […] Similar results were obtained regardless of whether Humanin was fused to the N- or C-terminus of GFP, with both of these GFP fusion polypeptides localizing to the cytosol of cells.

[2] = biological target: T1, Bax; test: Co-immunoprecipitation of GFP-Humanin fusion polypeptides with Bax in transfected cells; assay type: binding; set-up: expressed in transfected cells; host or cells: HEK293T; key to Bax binding: +: ability to bind Bax was determined by co-immunoprecipitation assay; −: lacked Bax-binding activity; details: for co-immunoprecipitation with tagged Bax: 293T/HEK293T cells, anti-GFP immunoprecipitation
Text: Humanin (HN) cDNA was sub-cloned into a Green Fluorescence Protein (GFP) expression vector GFP-Cl at the Xhol/Hind III sites, producing a GFP-HN fusion polypeptide. GFP and GFP-HN were transfected into 293T cells with pcDNA3-HA-Bax. Cell lysates from these cells were immunoprecipitated with anti-GFP antibody and subsequently blotted with anti-HA antibody. The lysates were also blotted with ani-GFP antibody to confirm polypeptide expression. […] The data shown were obtained using the cytosolic form of Humanin; however, both cytosolic and mitochondrial forms of Humanin were tested and the results were the same.
Co-immunoprecipitation assays were performed using Humanin polypeptides expressed as fusion polypeptides with the Green Fluorescent Protein (GFP) in human cells. Wild-type Humanin fused to GFP is referred to as GFP-HN and a mutant form of Humanin, where the cysteine at position 8 is replaced with proline, fused to GFP is referred to as GFP-C8P. […] Immunoblot analysis of lysates of the transfected cells confirmed production of all proteins. In addition, GFP-HN also coimmunoprecipitated endogenous Bax from cell lines, which contain relatively high levels of the Bax protein.
Immunoblotting and immunoprecipitations were performed as follows. Immunoblotting was performed as described previously (Fields and Song, Nature 340:245-246 (1989)). For co-immunoprecipitations, cells were cultured in 50 uM […] Valine Alanine Asparate fluoromethyl-ketone (zVAD-fmk) to prevent apoptosis. Cells were suspended in lysis buffer (50 mM Tris-HCl, pH7.4; 150 mM NaCl; 20 mM EDTA; 50 mM NaF; 0.5% NP-40; 0.1 mM Na3VO4; 20 ug/ml Leupeptin; 20 ug/ml Aprotinin; 1 mM DTT; and 1 mM PMSF). Lysates (200 ul diluted in 1 ml final volume of lysis buffer) were cleared by incubation with 15 ul of protein G-Sepharose 4B (Zymed) and then incubated with 15 ul of polyclonal antibody and 15 ul of protein G at 4° C. overnight. Beads were then washed 4 times with 1.5 mls lysis buffer before boiling in Laemmli sample buffer and performing SDS-PAGE/immunoblotting.
In order to explore whether a correlation exists between Humanin binding to Bax and Humanin-mediated suppression of apoptosis, Bax was co-expressed with various GFP-fusion polypeptides encoding wild-type, full-length Humanin or various truncation and site-specific mutants of Humanin (Table 1). Expression of all GFP-fusion polypeptides was confirmed by immunoblotting, and ability to bind Bax was determined by co-immunoprecipitation assay. Each Humanin mutant was scored for ability to suppress apoptosis induced by Bax over-expression by >50% using a 3:1 ratio of HN:Bax plasmid DNA. […] Based on these studies, an active region of the 24 amino-acid Humanin peptide, mapped to residues 7-17.

[3] = test system: Bax-deficient HCT116 cells; test: STS-induced apoptosis in Bax-deficient HCT116 cells; assay type: cell-based, human
[4] = test system: Bax; test: Bax-induced lethality in yeast; assay type: cell-based, S. cerevisiae; details: TAD-fusion polypeptide, galactose-induced Bax

T1 sequence (Q07812 whole entry, species assumed): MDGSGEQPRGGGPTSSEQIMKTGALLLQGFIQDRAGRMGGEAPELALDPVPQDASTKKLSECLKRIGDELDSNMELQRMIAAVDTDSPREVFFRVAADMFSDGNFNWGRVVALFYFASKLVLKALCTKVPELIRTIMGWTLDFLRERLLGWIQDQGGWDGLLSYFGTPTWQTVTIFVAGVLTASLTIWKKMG

Substance | suppression of Bax-induced apoptosis, nuclear vs mitochondria-encoded form ([1]; CSM14.1 cells, 48 h, DAPI) | suppression of apoptosis induced by Bax ([1]; CSM14.1 or PC-3 cells, transient co-transfection) | co-immunoprecipitation with tagged Bax [2] | co-immunoprecipitation with tagged Bax ([2]; listed as GFP-HN(N)) | Bax binding ([2]; GFP-fusion polypeptides, co-immunoprecipitation) | co-immunoprecipitation of endogenous Bax ([2]; cell lines with relatively high levels of Bax) | suppression of STS-induced apoptosis [3] | Bax-induced apoptosis ([1]; CSM14.1 cells, 24 hours after transfection, DAPI) | rescue of yeast from Bax-induced lethality [4]
GFP-HN: Wild-type full-length Humanin fused to Green Fluorescent Protein | suppressed to comparable extents | about half | co-immunoprecipitated | comparable amounts | + | coimmunoprecipitated | failed to suppress |  | 
Humanin: 24 amino acid polypeptide, cytosolic form of human Humanin (SEQ ID NO:2); used as synthetic peptide or expressed fusion |  |  | co-immunoprecipitate |  |  |  |  | decreased | rescued
